This passage reports GFP expression of LILRB2 reporter cells, immobilized monomeric GST-Angptl2, GFP expression of LILRB2 reporter cells, soluble monomeric GST-Angptl2 and GFP induction of LILRB2 reporter cells by immobilized Angptl2, no antibody results from US20170260508A1.

The experiment addresses chimeric LILRB2-PILRβ receptor (aa 24-458 of hLILRB2) on mouse T cell hybridoma NFAT-GFP reporter cells (human) (UniProt Q8N423). Nature of the experiment: cell-based or functional assay.

chimeric LILRB2-PILRβ receptor (aa 24-458 of hLILRB2) on mouse T cell hybridoma NFAT-GFP reporter cells (human), sequence (Q8N423 other isoform, or with tags, fused parts or gaps mutant limits assumed, form in doubt): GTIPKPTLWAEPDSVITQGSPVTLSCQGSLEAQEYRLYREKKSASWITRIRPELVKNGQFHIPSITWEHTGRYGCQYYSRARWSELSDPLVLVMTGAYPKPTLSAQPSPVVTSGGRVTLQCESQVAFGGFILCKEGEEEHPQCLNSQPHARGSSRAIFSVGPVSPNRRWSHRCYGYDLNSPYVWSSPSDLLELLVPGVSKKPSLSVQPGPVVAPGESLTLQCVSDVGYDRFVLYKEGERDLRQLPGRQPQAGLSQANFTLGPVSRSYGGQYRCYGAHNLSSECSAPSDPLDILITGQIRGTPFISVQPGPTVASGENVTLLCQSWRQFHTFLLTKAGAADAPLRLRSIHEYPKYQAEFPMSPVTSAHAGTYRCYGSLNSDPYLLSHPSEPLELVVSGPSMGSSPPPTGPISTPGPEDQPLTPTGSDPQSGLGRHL

“GST-human Angptl2, bacterially expressed (GST-Angptl2-FLAG) (from UniProt Q9UKU9 23-493) (ligand)” gave a GFP expression of LILRB2 reporter cells, immobilized monomeric GST-Angptl2 of 20%; a GFP expression of LILRB2 reporter cells, soluble monomeric GST-Angptl2 of 3.56%; a GFP induction of LILRB2 reporter cells by immobilized Angptl2, no antibody of 19.9%.
